Laboratory results from paper PMC4895335.

Target: T1, Ms4022 (TetR family regulator) (Mycobacterium smegmatis mc2 155) (UniProt A0QZH0)
T1 sequence: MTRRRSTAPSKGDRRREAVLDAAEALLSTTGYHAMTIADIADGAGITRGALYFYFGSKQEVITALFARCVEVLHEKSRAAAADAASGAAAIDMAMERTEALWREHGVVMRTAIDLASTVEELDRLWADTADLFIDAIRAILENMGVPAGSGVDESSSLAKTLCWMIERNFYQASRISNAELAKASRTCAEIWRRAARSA
Test: EMSA
Conditions: EMSA: 50 mM Tris-HCl pH 7.5, 10 mM MgCl2, 50 mM NaCl, 4 C 30 min, 5% native PAGE in 0.5x TBE at room temperature; footprinting: binding as in EMSA, DNase I at …

Sequence	binding
ACGCCGATACTTGACGGAGTGCTTATTTTTTTCGACACTGTGCTTATTGAGATGGCGGGGCATGGAGGCAGCGATGCGAACAATCTTGATCGCCGGAACGAGCGGCGACTTCCGGCGAGCATTCGCCGAGGCGGTTGCGCCTTGGCGTGCACACAGTCGCATCCCCGACCTCGCCGACGCCGCTGTCGGCCCATCCGGGAAGGACCATCCGTGACGAAATCCA (double strand) [Ms4022p s1]	binds
GCCTTACGGCACAACGACTTCGGGCTGGCGGCCCGGCGTCGTCGCATCGCGCACGTCCGGTCGGACGCCCCCAGTCGGCCCCTCCGGACTAGGCGTCCACGCCGATACTTGACGGAGTGCTTATTTTTTTCGACACTGTGCTTATTGAGATGGCGGGGCATGGAGGCAGCGATGCGAACAATCTTGATCGCCGGAACGAGCGGCGACTTCCGGCGAGCATTCGCCGAGGCGGTT (double strand) [Ms4022p s2]	binds
GTCGATCTCCGTCGGGTCAACGGGCGAACTTCCCTGTCACGGCAGTCAGGTTAGCACGAATCCACACAGTGCTGATTTTTATCAGCTTGTTGTCGGCGACGCGGTCACCCGTTTCGGTCGCGAGGTGTCTGATCGGTCGCCATCGGTTATGGCCTTACGGCACAACGACTTCGGGCTGGCGGCCCGGCGTCGTCGCATCGCGCACGTCCGGTCGGACGCCCCCAGTCGGCCCCTCCGGACTAGGCGTCCACGCCGATACTTGACGGAGT (double strand) [Ms4022p s3]	binds
